Experimental findings from a protein production outcome set (Wang et al. 2014) are described below.
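Further: failed if final PepcDB status was selected cloned or expressed and not failed if soluble or beyond.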

The data set can be described thus: label from the status in PepcDB records.
On to “MSTEKIINLAAYAGKILLQSGAEIYRVEETMNKICTAFNVKEAESFVTPTGIIISITGEDEKITSTIKRIQVRTVDLRKISEVNDLSRTLQYKNFSLEEVADKLKKIDNEKKHSDLFLIFFSAVAAGFFTLIFGGTFRDFSVSFFIGIIIKIFSIIISRLEINDFFLNMVGGAIAAFIALLFKKLGVVVYLDKTIIGSIMLLVPGLAITNAVRDTIAGDLVSGVSRALDAFFTAVAIAAGTGLVFKIWINFFGGTGL”, for which the protein production entry was “failed”.
For the sequence “MYKLGVFLLATLLSANTQKVSDIAKDIQHKETLLKKTHEEKNQLNSRLSSLGEAIRSKELQKAEMERQMIALKKSLEKNRNESLAQEKVLTNYRKSLDHLQKKRSFLQKRVFDTLLQDFLFSQALKGQNLASSNDVVLQVAFENLHQSTLSKMSQLSQEEKELNTQALKVKNSIQKISSIIDEQKTREVTLKSLKTEQDKLILSMQKDYAIYNQRLTLLEKERQNLNALLKRLNIIKQNRENEEKVSLKKSSQALEVKQVASSYQNINTTSYNGPKTIAPLNDYEVVQKFGPYIDPVYNLKIFSESITLVSKTPNALVRNVLDGKIVFAKEINMLKKVVIIEHKNGIRTIYSQLDKIAPTIKSGMRIQKGYVLGRIDQRLGFEVTMREKHINPLELIARN”, the protein production entry is “failed”.
Consider “MTTTNEQEQSRAYILAGLFTLSLRLVVGWTYFSAFWRRLVLENKLIPDSAGYIGEKFNHFLPNSIGIRPVIEYLVSTPDMLWWAMVIFTLVEGIVGLLYMLGFFTRLMSIGVFSLATGILLGSGWLGTTCLDEWQIGILGIAAGFTIFLSGGGKYSVDHLIERKFSLKKKAAWLSWLTSGELPVSAKRFANVSVAGAIVIFTLSLYTNQEFHNGVWGPLHNKSVKPKIEISDAQIENNSLSFSVYRVEGVDVYGSFLIGISLKNADGDIVLEKKGEELADFPIGNIDNKYIARVAPGKHSLVIPLGSKATLTVDDTAIGSLPKGKYELVLTDISGITWKKEIIH”, for which the protein production entry is on record as “failed”.
With “MSSFRSAWAGAPAGIAVARTGQSVPLLNAAAALAVAMAVGGWLSGARHASAIDATQIESWRAMVAQAMEPQALRQLRQLARGGSTPARTALGEALLDSRDASLRHEGVRWLEAAAQPADGAPGDARAQLALGKALLLGTGGVARDYPRALHLLRQAADRGDAAAAYYLGLMYRSGYGTAANTALAAHWFDGAARHGIPAAMFMLANAYRDGDGVPRDEARALALYEQAAEHELPEAVQALAMAYQNGELGLARDDAAFRKQWLETAHALKHPALTP”, the protein production entry is “failed”.
Regarding “MSLKTLNIYLMRHGKVDAAPGLHGQTDLKVKEAEQQRIAMAWKTKGYDVAGIISSPLSRCHDLAQILAEQQLLPMTTEDDLQEMDFGDFDGMPFDLLTEHWKKLDAFWQSPAHHSLPNAESLSTFSQRVSRAWSQIINDINDNLLIVTHGGVIRIILAHVLGVDWRNPQWYSTLAIGNASVTHITITIDDQIYASVRSIGVPLVEEGHHHHHH”, the protein production entry is “not failed”.
As for “MSLTNGEENEEVLFCEKAKLLIFDSDTKGYTSRGVGELKLLRKKDDKGKVRVLCRSEGMGHVLLNTSVVKSFKYQPIDADNENLIKWPIITDGKLETFIIKVKQKADGRRLVGAVADAQQAMEGHHHHHH”, the protein production result is reported as “not failed”.
On to “MTAGGTMTLKITFLGSGSSFAIGPENYQSNVLLELENDTLLIDAGTDIKYSLRDQGLSYKDIKNIYISHLHYDHCGGLEWFALITYFDPNLSHKPCLIASDKIINELWDKSLSGGLSTLPHERANLSAFFDVKAVKQYEGFVWRSIKFKLVQTVHYYSEYELMPSFGLIFSYNKSRILFTSDTQSCPVQLISFYEESDIIFHDCETTESKSGVHAHYSELVKLPSHLKKKMWLYHYNPGKLPNAKKDGFLGFVAKGQSFVF”, for which the protein production result is on record as “failed”.
In the case of “MAKAQTVTILSPVNGDVIALNKVKDPVFSAGMMGLGFGVQPSSGEVVAPVSGQVTMVAETKHAIGFTTPDDHLEVLVHLGIDTVDLKGAPFTVKVAAGDDVQAGDVIATMDLAAIQAANRQTTVILAVTNTSDKLESLDVVTGAKAAGDVTATGRLNANTFNAKRQNRLPKAGKYDQLAADIVANVGGVENVSSLIHCITRLRFYLKDESKANDDVVRDLKGVIDVAKAGGQYQVVIGPAVTDVYDAIIKQIGPGFSNDSETAKAVAETAAAAQRPTTPWGKVKWGISNLIGVITGSMIPVIGLLAASGILKGILALLTTFNLVSPTAPTYVIINAMGDSVFYFLPIFVGFTAGKKLGADPVIMGIIGGVLTYPAIVTMASGKATSTLLGMGINANFFGLPVHVASYTYSIFPMIAGAWLASKLEPWLKRVIPTVLRMIFVPLFEVVIVSGAILLFLGPIITVLSTGLANIIVWVYNLSPAISGLIIGGFYQVLVIFGLHWAVIPIVANDIATTGHSYLNAIVSATMVAQGGAVFAIALKSKLANIQELAWPATISAFCGVTEPAMYGINLKYGRAFVTASIGAAVGGFLTGLMNVNMWGFTGSLIGFTSFVNPKGLDFSFYGFLIASAATIVVSFALTWMFGFKDEDANAVKVAPKKRHLGATA” it was “failed”.
Take “SYDYQSAFDIIGPVMMGPSSSHTAGAVKIGNSARAVLGDMPKHIEIRYYESFAKTHQGHGTDVAIVGGAMGYSTFDSRIKSSLDIAKDENITIDIIEDEGESIGQHPNCAYIKANTKDGRYIEVIGISIGGGTIKLKGINVNGLNVELNHG”: the protein production result is on record as “failed”.
Regarding “MDRADLRIAVLMGTKDGAPFIDEQLQSLLAQSHPLIDLWISDDGSVDGTVPIIEAWKSRWTKGRVTLVQGPREGFAANFRSMILDRRIDADFYAFSDQDDVWEPDRLESAVQWMQAFGAEPPLMFCSRTATMTETGSLAGHSPLFRRPPSFRNALVQSIAGGNTILLNRAARDLLARASARTGFVSHDWWAYLVVTGAGGVVHYDPRPLVRYRQHAANLVGANVSWAARVSRLGRLFKGEFADWTDLNLAGLAVNRDLLTPDAATCLDLFASGRQGSLFQRLRTLLVSGVYRQTLAGTLGLYLAFVLGRILEHHHHHH”, the protein production entry was “failed”.
Turning to “MAQPKFVVAEIVEMEDHPDSDHLHICKVNVGFADPVQIVCGAPNAALGLKTVAALPGAMMPNGSLIFPGALRGVQSYGMLCSALEHHHHHH”, the protein production entry was “failed”.
In the case of “MYGEGDFYTIKSKRDYEFYLEADRLALGKNCKKPRLIGDDIWKFQRLLRQAEYYSNCQNSLLHKLYLKYILFRFHRMSIRLGFSIPINVFGPGLCIAHRGTIVVNKGARVGENCRIHACTNIGSGRDNIFLAPKIGNGVYIGPGAKIFGSVEIADNIAIGANSVVNRSFYERGISIAGVPAKKISNKGSDGMVIAATKTVSVPVSQETILEHHHHHH” it was “not failed”; in that of “MRETVKLIEVARELPVSRKNLQMLLLLLLCGAAAYIINLADPALEPLFLALVFGIVAGNLQRDEEKKRVVERYVPFLLPIGITLYGVNINIPYLGEFHPEIVAATLISTSLIFLTVFWLSSRLKLSRQMSILLACGSGICGVSAIAIISPLIKPRKEEFSAAIMIITAVGLTGAILYPSIAHYASISPDEFAVLAGATLHQTGIVKISSQLFGVEEEALAIKGIRIAMIALVVLILSIIYSESRFYVPWYIVSFLGVALFSSTYLPGEVVQALRPLATVMFATTLAAICYTVNVGRVQRVGVKPLFASYAGWAVGVAFVLLLLGSGAL”, “failed”; in that of “MIRNPKIYIIILNYNAYEDTLECVKSIGNIDYDNYELVLVDNSSTDDSYVKLKESLPSYNIIKSKENLGYANGNNIGIKYALENGADYICILNNDVVVEKDFLNKLVDKIIEKEDVGIVGSCICDYYRREIIQGMGAHINLYFAAARRYFKGKNYNEIEKKDIFVDYLEGACFLVKSEVFEKIGLIPENYFLFFEETEFCTRAINAGYKIMCIYESKVYHKGSATINKFGSLSYAYLNRNRVIFVRRNSKWYQKIIFAIYIFIEAFGRIVIRKEPLTLFKYILGGFKSNKESIDVIDVKSYVKLEHHHHHH”, “failed”.
Turning to “PPLYVPEQLVVHKETHQAHVMIGSRGYNAYDDKRTALYLLNNILGGPGMNSRLNVSLRERRGLVYTVESNLTSYTDTGAFCIYFGTDPEDVDTCLKLTYKELKRMRDVKMTSSQLMAAKKQLIGQIGVASDNNENNALGMAKTFLHYNKYESSESVFRRIEALTAEGLLEVANEMFAEEYLSTLIY”, the protein production result was “failed”.
With “NLNAIQNFGAMNILCTDKTGTLTCDKIVLEKYINADGSDDHSRRILRHAFLNSYFQTGLKNLMDKAILAHVREENLEHLTEGYTKIDEIPFDFSRRRMSVVIEDQQGKRQIITKGAVEEMLNICSHAEFNGQVYELTDKLRSKAKRISDDMNRNGMRVLAIAQKSFISKARDFAVTDEDEMVLIGYLAFLDP”, the protein production entry was “failed”.
